This series concerns the molecule itself. In words: negative-stain electron microscopy; sucrose gradient-purified VLPs from baculovirus-infected Sf9 cells, negatively stained with 3% uranyl acetate (pH 4.5), 23,000x.

B1: Norovirus GII.4 Sydney capsid protein VP1 (virus-like particles) (natural protein)
chain: MKMASSDANPSDGSAANLVPEVNNEVMALEPVVGAAIAAPVAGQQNVIDPWIRNNFVQAPGGEFTVSPRNAPGEILWSAPLGPDLNPYLSHLARMYNGYAGGFEVQVILAGNAFTAGKVIFAAVPPNFPTEGLSPSQVTMFPHIVVDVRQLEPVLIPLPDVRNNFYHYNQSNDPTIKLIAMLYTPLRANNAGDDVFTVSCRVLTRPSPDFDFIFLVPPTVESRTKPFSVPVLTVEEMTNSRFPIPLEKLFTGPSSAFVVQPQNGRCTTDGVLLGTTQLSPVNICTFRGDVTHITGSRNYTMNLASQNWNDYDPTEEIPAPLGTPDFVGKIQGVLTQTTRTDGSTRGHKATVYTGSADFAPKLGRVQFETDTDRDFEANQNTKFTPVGVIQDGGTTHRNEPQQWVLPSYSGRNTHNVHLAPAVAPTFPGEQLLFFRSTMPGCSGYPNMDLDCLLPQEWVQYFYQEAAPAQSDVALLRFVNPDTGRVLFECKLHKSGYVTVAHTGQHDLVIPPNGYFRFDSWVNQFYTLAPMGNGTGRRRAV
notes: The VP1 gene was cloned; also called GII.4 SYD VLP; GII.4-2012 (Sydney); source: Sf9 insect cells (baculovirus, pFastBac1), purified by two discontinuous sucrose gradient ultracentrifugations
Take B1: the binding result is listed as “binds”.
